In publication PMC8693265, “Investigation of PAS and CNBH domain interactions in hERG channels and effects of long-QT syndrome-causing mutations with surface plasmon resonance” (The Journal of Biological Chemistry, 2021):
Where two headings read alike, the source gives them in different places.

B1: hERG CNBH domain (residues 734-867) (domain or fragment, human, UniProt Q12809 734-867, looked up)
chain: RSLLQHCKPFRGATKGCLRALAMKFKTTHAPPGDTLVHAGDLLTALYFISRGSIEILRGDVVVAILGKNDIFGEPLNLYARPGKSNGDVRALTYCDLHKIHRDDLLEVLDMYPEFSDHFWSSLEITFNLRDTNM
notes: also called isolated CNBH domain; not shown: 6-His, N-terminal, cleaved
B2: hERG PAS domain (residues 2-134) (domain or fragment, human, UniProt Q12809 2-134, looked up)
chain: PVRRGHVAPQNTFLDTIIRKFEGQSRKFIIANARVENCAVIYCNDGFCELCGYSRAEVMQRPCTCDFLHGPRTQRRAAAQIAQALLGAEERKVEIAFYRKDGSCFLCLVDVVPVKNEDGAVIMFILNFEVVME
notes: PAS domain (with PAS-cap) of the human ether-a-go-go-related gene (hERG, Kv11.1, KCNH2) channel, residues 2-134; Cloned in pETM11; The PAS domain expressed from mRNA in oocytes (pGH19) is written under this molecule in the functional rows; also called isolated PAS domain; free PAS domain; not shown: 6-His, N-terminal, cleaved

Key:
Test in all cases: SPR; one domain amine-coupled to a CM5 chip (~2000-3000 RU), the other injected as analyte over a range of concentrations (maximum 10 uM); Biacore T200, 25 C; 150 mM KCl, 1 mM TCEP, 10% glycerol, 0.05% Tween 20, 30 mM HEPES pH 7.5; fits with the two-state reaction model; for PAS/PAS and CNBH/CNBH the step of oligomerisation is not told
[1] = biological target: the molecule itself
[2] = biological target: the molecule itself; remark: listed apart in the source
[3] = biological target: B1; conditions: both partners purified
[4] = biological target: B1; conditions: both partners purified; remark: listed apart in the source
[5] = biological target: B2; conditions: both partners purified

Binder: B1
- Kd [1]: 2.7 µM
- Kd [2]: 5 µM

Binder: B2
- Kd [1]: 1.6 µM
- Kd [3]: 1.4 µM
- Kd [2]: 0.4 µM

B3: hERG PAS domain with the LQTS-causing mutation E58D (domain or fragment, human, UniProt Q12809 2-134, looked up)
chain: PVRRGHVAPQNTFLDTIIRKFEGQSRKFIIANARVENCAVIYCNDGFCELCGYSRADVMQRPCTCDFLHGPRTQRRAAAQIAQALLGAEERKVEIAFYRKDGSCFLCLVDVVPVKNEDGAVIMFILNFEVVME
notes: PAS domain of the hERG (KCNH2) channel, residues 2-134, with the genetically occurring LQTS mutation E58D; also called PAS-E58D; not shown: 6-His, N-terminal, cleaved
- Kd [3]: 0.6 µM
- Kd [4]: 0.2 µM

B4: hERG PAS domain with the LQTS-causing mutation R20G (domain or fragment, human, UniProt Q12809 2-134, looked up)
chain: PVRRGHVAPQNTFLDTIIGKFEGQSRKFIIANARVENCAVIYCNDGFCELCGYSRAEVMQRPCTCDFLHGPRTQRRAAAQIAQALLGAEERKVEIAFYRKDGSCFLCLVDVVPVKNEDGAVIMFILNFEVVME
notes: PAS domain of the hERG (KCNH2) channel, residues 2-134, with the genetically occurring LQTS mutation R20G; also called PAS-R20G; not shown: 6-His, N-terminal, cleaved
- Kd [3]: 3.6 µM
- Kd [4]: 2 µM

B5: mEAG PAS domain (residues 7-136) (domain or fragment, mouse (from the name mEAG), UniProt Q60603 7-136, looked up)
chain: RRGLVAPQNTFLENIVRRSNDTNFVLGNAQIVDWPIVYSNDGFCKLSGYHRAEVMQKSSACSFMYGELTDKDTVEKVRQTFENYEMNSFEILMYKKNRTPVWFFVKIAPIRNEQDKVVLFLCTFSDITAF
notes: PAS domain of the mEAG channel, residues 7-136; not shown: 6-His, N-terminal, cleaved
- Kd [5]: ~5.6 µM
- Kd [4]: ~1.7 µM
